B1: Keratin, type II cytoskeletal 6A (Homo sapiens), P02538 (parent)
chain: MASTSTTIRSHSSSRRGFSANSARLPGVSRSGFSSVSVSRSRGSGGLGGACGGAGFGSRSLYGLGGSKRISIGGGSCAISGGYGSRAGGSYGFGGAGSGFGFGGGAGIGFGLGGGAGLAGGFGGPGFPVCPPGGIQEVTVNQSLLTPLNLQIDPTIQRVRAEEREQIKTLNNKFASFIDKVRFLEQQNKVLETKWTLLQEQGTKTVRQNLEPLFEQYINNLRRQLDSIVGERGRLDSELRGMQDLVEDFKNKYEDEINKRTAAENEFVTLKKDVDAAYMNKVELQAKADTLTDEINFLRALYDAELSQMQTHISDTSVVLSMDNNRNLDLDSIIAEVKAQYEEIAQRSRAEAESWYQTKYEELQVTAGRHGDDLRNTKQEIAEINRMIQRLRSEIDHVKKQCANLQAAIADAEQRGEMALKDAKNKLEGLEDALQKAKQDLARLLKEYQELMNVKLALDVEIATYRKLLEGEECRLNGEGVGQVNISVVQSTVSSGYGGASGVGSGLGLGGGSSYSYGSGLGVGGGFSSSSGRAIGGGLSSVGGGSSTIKYTTTSSSSRKSYKH
B2: Keratin, type II cytoskeletal 6A (Homo sapiens), P02538 (parent)
chain: B1 chain
partner: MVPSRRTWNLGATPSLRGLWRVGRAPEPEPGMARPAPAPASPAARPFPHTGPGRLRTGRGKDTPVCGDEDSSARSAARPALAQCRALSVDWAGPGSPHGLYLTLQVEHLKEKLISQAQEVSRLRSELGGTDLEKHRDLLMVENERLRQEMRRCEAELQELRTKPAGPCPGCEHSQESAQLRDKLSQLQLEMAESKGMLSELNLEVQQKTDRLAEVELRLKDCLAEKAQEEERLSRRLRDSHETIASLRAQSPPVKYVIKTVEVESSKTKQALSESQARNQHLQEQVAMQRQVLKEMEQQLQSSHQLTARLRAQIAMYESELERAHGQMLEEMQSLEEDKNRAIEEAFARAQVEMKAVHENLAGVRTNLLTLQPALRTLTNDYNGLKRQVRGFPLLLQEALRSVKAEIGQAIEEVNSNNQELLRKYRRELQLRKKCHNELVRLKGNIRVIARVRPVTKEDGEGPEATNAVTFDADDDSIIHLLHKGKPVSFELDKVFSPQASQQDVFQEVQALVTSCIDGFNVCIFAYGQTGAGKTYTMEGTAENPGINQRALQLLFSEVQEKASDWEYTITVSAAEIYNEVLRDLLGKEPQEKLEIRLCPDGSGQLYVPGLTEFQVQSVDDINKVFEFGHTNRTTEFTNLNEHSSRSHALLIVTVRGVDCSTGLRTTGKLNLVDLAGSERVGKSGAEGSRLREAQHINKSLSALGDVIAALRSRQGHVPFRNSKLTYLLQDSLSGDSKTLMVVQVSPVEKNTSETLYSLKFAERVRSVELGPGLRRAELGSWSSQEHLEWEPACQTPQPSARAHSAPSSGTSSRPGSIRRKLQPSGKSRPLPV
B3: EF-hand domain-containing protein 1 (Homo sapiens), Q5JVL4 (parent)
chain: MVSNPVHGLPFLPGTSFKDSTKTAFHRSQTLSYRNGYAIVRRPTVGIGGDRLQFNQLSQAELDELASKAPVLTYGQPKQAPPADFIPAHVAFDKKVLKFDAYFQEDVPMSTEEQYRIRQVNIYYYLEDDSMSVIEPVVENSGILQGKLIKRQRLAKNDRGDHYHWKDLNRGINITIYGKTFRVVDCDQFTQVFLESQGIELNPPEKMALDPYTELRKQPLRKYVTPSDFDQLKQFLTFDKQVLRFYAIWDDTDSMYGECRTYIIHYYLMDDTVEIREVHERNDGRDPFPLLMNRQRVPKVLVENAKNFPQCVLEISDQEVLEWYTAKDFIVGKSLTILGRTFFIYDCDPFTRRYYKEKFGITDLPRIDVSKREPPPVKQELPPYNGFGLVEDSAQNCFALIPKAPKKDVIKMLVNDNKVLRYLAVLESPIPEDKDRRFVFSYFLATDMISIFEPPVRNSGIIGGKYLGRTKVVKPYSTVDNPVYYGPSDFFIGAVIEVFGHRFIILDTDEYVLKYMESNAAQYSPEALASIQNHVRKREAPAPEAESKQTEKDPGVQELEALIDTIQKQLKDHSCKDNIREAFQIYDKEASGYVDRDMFFKICESLNVPVDDSLVKELIRMCSHGEGKINYYNFVRAFSN
partner: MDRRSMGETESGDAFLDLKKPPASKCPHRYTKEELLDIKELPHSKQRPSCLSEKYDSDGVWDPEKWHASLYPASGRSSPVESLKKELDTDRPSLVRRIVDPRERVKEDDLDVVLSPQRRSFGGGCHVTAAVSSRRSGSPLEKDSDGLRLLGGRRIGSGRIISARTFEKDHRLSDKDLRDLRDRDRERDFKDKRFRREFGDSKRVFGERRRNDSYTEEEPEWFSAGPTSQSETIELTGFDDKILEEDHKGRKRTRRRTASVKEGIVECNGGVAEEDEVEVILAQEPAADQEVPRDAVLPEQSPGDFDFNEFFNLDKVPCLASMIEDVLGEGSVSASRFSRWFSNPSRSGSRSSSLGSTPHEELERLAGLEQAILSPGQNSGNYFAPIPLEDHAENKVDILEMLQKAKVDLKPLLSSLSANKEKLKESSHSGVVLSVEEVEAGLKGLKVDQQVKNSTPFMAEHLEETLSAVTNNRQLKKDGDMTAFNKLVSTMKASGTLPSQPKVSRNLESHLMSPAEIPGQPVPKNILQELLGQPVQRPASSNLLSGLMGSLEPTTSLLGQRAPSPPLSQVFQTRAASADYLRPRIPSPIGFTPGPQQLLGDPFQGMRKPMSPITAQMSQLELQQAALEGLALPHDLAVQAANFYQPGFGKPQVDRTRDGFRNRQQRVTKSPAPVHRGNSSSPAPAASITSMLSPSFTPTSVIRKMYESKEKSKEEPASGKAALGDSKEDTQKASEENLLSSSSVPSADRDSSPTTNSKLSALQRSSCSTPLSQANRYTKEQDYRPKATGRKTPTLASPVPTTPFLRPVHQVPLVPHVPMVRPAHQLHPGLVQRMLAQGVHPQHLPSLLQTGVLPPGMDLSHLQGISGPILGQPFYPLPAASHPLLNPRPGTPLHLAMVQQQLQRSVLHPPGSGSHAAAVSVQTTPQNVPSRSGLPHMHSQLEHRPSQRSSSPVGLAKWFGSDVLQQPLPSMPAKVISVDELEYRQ

Variants of B1 are the subject of the first test. Conditions: with tfp11_human TFIP11, Q9UBB9.
Chain of tfp11_human TFIP11, Q9UBB9 (Q9UBB9 whole entry): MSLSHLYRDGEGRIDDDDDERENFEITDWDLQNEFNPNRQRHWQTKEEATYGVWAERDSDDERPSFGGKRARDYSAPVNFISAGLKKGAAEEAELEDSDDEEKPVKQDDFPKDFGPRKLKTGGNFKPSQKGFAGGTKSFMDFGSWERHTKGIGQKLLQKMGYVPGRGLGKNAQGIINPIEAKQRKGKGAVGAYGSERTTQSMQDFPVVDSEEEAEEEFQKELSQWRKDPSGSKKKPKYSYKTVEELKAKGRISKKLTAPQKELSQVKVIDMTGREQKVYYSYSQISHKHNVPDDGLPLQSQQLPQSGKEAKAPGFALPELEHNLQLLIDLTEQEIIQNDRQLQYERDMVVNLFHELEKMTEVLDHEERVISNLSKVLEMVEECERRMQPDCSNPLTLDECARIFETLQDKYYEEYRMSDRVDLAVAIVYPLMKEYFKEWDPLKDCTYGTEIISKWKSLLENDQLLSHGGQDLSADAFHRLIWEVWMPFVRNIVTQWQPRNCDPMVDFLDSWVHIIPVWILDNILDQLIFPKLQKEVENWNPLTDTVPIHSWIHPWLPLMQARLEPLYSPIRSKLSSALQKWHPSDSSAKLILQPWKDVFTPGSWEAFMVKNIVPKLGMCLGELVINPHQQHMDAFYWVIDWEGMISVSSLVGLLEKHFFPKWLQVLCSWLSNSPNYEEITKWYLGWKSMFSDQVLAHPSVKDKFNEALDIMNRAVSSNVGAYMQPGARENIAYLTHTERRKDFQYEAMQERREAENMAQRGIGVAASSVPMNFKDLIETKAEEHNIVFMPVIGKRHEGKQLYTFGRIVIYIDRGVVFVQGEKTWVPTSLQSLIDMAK
As for A463P, the “effect of a mutation on the interaction” value is reported as “disrupting interaction”.

In another test the parent is B1. To be noted: with tfp11_human TFIP11, Q9UBB9. The source holds these as a separate data set.
I462S: the “effect of a mutation on the interaction” value is reported as “disrupting interaction”.

Variants of B2 are the subject of the next test. Conditions: with kifc3_human KIFC3, Q9BVG8.
As for N171K, the “effect of a mutation on the interaction” value was “disrupting interaction”.

The variants in a further test derive from B2. Conditions: with kifc3_human KIFC3, Q9BVG8. The source holds these as a separate data set.
In the case of A463P, the “effect of a mutation on the interaction” value is “disrupting interaction”.

The variants in the next test derive from B2. To be noted: with kifc3_human KIFC3, Q9BVG8. This is another data set of the same source.
Consider I462S, for which the “effect of a mutation on the interaction” value is “disrupting interaction”.

The variants in a further test derive from B3. To be noted: with 4et_human EIF4ENIF1, Q9NRA8.
As to P77T, the “effect of a mutation on the interaction” value is reported as “disrupting interaction”.

A further test covers variants of B3. Conditions: with 4et_human EIF4ENIF1, Q9NRA8. The source holds these as a separate data set.
With R221H, the “effect of a mutation on the interaction” value was “disrupting interaction”.

In a further test the parent is B3. Conditions: with 4et_human EIF4ENIF1, Q9NRA8. This is another data set of the same source.
As to T508R, the “effect of a mutation on the interaction” value is “disrupting interaction”.

Another test covers variants of B3. Conditions: with 4et_human EIF4ENIF1, Q9NRA8. The source holds these as a separate data set.
Consider A394S, for which the “effect of a mutation on the interaction” value is recorded as “disrupting interaction”.

For the origin of these results see IntAct's records for PubMed 25416956.
